The source of these data is PMC2779222 (The Journal of Cell Biology, 2009).

One series has as its target ΔN–CEACAM1-3L–YFP (rat) (UniProt P16573). The series is described as follows: cross-linking.
The series “cross-linking” concerns the molecule itself. Description: cross-linking.

The term stoichiometry N denotes the number of molecules, sites or subunits per partner or assembly.

Regarding “ΔN–CEACAM1-3L–YFP (from UniProt P16573 35-519) (domain or fragment)”, the stoichiometry N with ΔN–CEACAM1-3L–YFP (rat) amounted to 2.

B1: CEACAM1-4ΔCyto–YFP (domain or fragment, rat, UniProt P16573 35-448, looked up)
chain: QVTVDAVPPNVVEEKSVLLLAHNLPQEFQVFYWYKGTTLNPDSEIARYIRSDNMSKTGPAYSGRETIYSNGSLFFQNVNKTDERAYTLSVFDQQFNPIQTSVQFRVYPALQKPNVTGNNSNPMEGEPFVSLMCEPYTNNTSYLWSRNGESLSEGDRVTFSEGNRTLTLLNVRRTDKGYYECEARNPATFNRSDPFNLDVIYGPDAPVISPPDIYLHQGSNLNLSCHADSNPPAQYFWLINEKLQTSSQELFISNITTNNSGTYACFVNNTVTGLSRTTVKNITVFEPVTQPSIQITNTTVKELGSVTLTCFSKDTGVSVRWLFNSQSLQLTDRMTLSQDNSTLRIDPIKREDAGDYQCEISNPVSFRISHPIKLDVIPDPTQGNSGLSEGAIAGIVIGSVAGVALIAALAYFLY
Regarding B1, the “stoichiometry N” value in the series “cross-linking” turned out to be 2.
